Data on four molecules can be found in patent US20120114665A1 (Regeneron, published 2012).

Assay [1] addresses T1, penta-his-tagged hRANKL (human).
T1 construct: also called his-hRANKL; not shown: penta-his tag
T1 chain: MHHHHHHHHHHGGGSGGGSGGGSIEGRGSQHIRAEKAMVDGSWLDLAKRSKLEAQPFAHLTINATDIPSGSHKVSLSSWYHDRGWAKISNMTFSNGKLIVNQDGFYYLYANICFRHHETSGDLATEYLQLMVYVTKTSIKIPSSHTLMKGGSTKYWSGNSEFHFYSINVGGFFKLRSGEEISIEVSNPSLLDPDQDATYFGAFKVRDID
Nature of the assay: competition ELISA: 150 pM his-hRANKL pre-mixed with antibody, free RANKL detected on hRANK-hFc plate. The procedure: (§1) Briefly, hRANK-hFc protein was coated on a 96-well plate in PBS buffer overnight at 4° C. at 2 μg/ml, and nonspecific binding was blocked with BSA, to form a hRANK-hFc surface.
A general note: In an ELISA, binding on a coated surface is turned into a signal by an enzyme label.

Assay [2] addresses T2, human RANKL (receptor activator of NF-κB ligand) (human, UniProt O14788 140-317, limits assumed).
T2 sequence: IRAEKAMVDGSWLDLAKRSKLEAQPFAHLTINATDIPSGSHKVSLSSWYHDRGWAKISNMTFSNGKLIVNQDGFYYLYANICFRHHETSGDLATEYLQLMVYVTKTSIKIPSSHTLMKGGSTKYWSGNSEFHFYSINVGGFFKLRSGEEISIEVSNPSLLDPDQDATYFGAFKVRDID
Nature of the assay: cell-based or functional assay.

Assay [3] concerns the target T1, penta-his-tagged hRANKL. Nature of the assay: competition ELISA: 150 pM his-hRANKL pre-mixed with antibody, free RANKL detected on hRANK-hFc plate. The protocol:
as §1

The target of assay [4] is T3, hRANKL captured on an anti-penta-his antibody surface (human, UniProt O14788 136-317).
T3 construct: also called captured hRANKL surface; not shown: his tag implied by capture on anti-penta-his
T3 sequence: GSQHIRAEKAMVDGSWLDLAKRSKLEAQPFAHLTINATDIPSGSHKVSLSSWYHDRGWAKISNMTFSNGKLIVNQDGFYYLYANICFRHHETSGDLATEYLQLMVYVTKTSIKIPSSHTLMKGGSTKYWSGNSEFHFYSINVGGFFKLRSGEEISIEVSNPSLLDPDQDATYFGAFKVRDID
Nature of the assay: SPR (BIACORE), hRANKL captured on anti-penta-his, antibody 25-100 nM injected, 25°C. Background: Surface plasmon resonance follows binding to a sensor surface in real time, without labels.

Assay [5] addresses T4, penta-his-tagged monkey (Macaca fascicularis) RANKL (Macaca fascicularis, UniProt O14788 125-317 (human entry)).
T4 construct: also called his-mfRANKL; mfRANKL; not shown: penta-his tag
T4 chain: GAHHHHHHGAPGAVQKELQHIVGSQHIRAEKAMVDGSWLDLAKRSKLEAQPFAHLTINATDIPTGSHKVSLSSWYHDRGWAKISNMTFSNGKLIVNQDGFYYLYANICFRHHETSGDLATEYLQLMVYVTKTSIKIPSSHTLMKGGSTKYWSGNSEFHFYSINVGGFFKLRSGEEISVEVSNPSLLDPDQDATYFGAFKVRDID
Nature of the assay: competition ELISA: 150 pM his-mfRANKL pre-mixed with antibody, free RANKL detected on hRANK-hFc plate. The procedure: as §1

Assay [6] addresses T5, human trRANKL-his (R&D) (human, UniProt O14788 136-317, limits assumed).
T5 construct: Bought (R&D); also called captured RANKL; not shown: his tag
T5 sequence: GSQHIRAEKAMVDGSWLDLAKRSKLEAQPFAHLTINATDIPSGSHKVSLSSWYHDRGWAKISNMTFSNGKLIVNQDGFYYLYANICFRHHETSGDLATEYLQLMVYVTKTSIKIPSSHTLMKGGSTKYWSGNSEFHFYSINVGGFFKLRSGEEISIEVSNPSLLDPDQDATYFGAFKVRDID
Nature of the assay: SPR, trRANKL-his captured on anti-his, antibody 12.5-50 nM injected, 37°C. The source says: (§2) Briefly, human trRANKL-his (R&D) was first captured over an anti-his surface. […] The antigen and antibody binding and dissociation were monitored for 1 hr. KD is expressed in pM, T_{1/2} in hrs.

The target of assay [7] is T2, human RANKL (receptor activator of …). Nature of the assay: SPR (BIACORE), purified antibody, 37°C.
Assay [8] shares this target. Nature of the assay: cell-based or functional assay. The source holds these as a separate data set.
The target is the same in assay [9]. Nature of the assay: SPR (BIACORE), purified antibody, 25°C.
The target of assay [10] is T4, penta-his-tagged monkey (Macaca …). Nature of the assay: competition ELISA: 150 pM his-mfRANKL pre-mixed with antibody, free RANKL detected on hRANK-hFc plate. The protocol:
as §1

The target of assay [11] is T5, human trRANKL-his (R&D). Nature of the assay: SPR, trRANKL-his captured on anti-his, antibody 12.5-50 nM injected, 25°C.
Description: as §2

Assay [12] addresses T3, hRANKL captured on an anti-penta-his …. Nature of the assay: SPR (BIACORE), hRANKL captured on anti-penta-his, antibody 25-100 nM injected, 37°C.

In general, IC50 refers to the concentration needed to halve the response being measured. For orientation: Kd means the free concentration of one partner at which half of the binding sites on the other are occupied at equilibrium, for simple one-to-one binding.

Values joined by “and” are separate entries in the source; they are usually repeats but may differ in a detail not shown here. Identical values can stand only once. Like-named read-outs stand apart in the source and are kept apart here.

B1: H4H008G (antibody, V domains shown)
VH: QVQLVESGGGVVQPGRSLRLSCAASGFTFSGFGMHWVRQAPGKGLEWVAVISYDGRNKYYADSVKGRFTISRDNSKNTLYLQMNSLRAEDTAVYYCAKSLSGTYWGYGMDVWGQGTTVTVS
VL: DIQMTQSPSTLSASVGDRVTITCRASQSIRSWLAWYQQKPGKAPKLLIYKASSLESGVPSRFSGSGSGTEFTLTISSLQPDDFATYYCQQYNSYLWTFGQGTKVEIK
notes: Purified antibody from clone 2G10
As to B1, the IC50 with penta-his-tagged hRANKL [1] was found to be 0.09 nM; with penta-his-tagged hRANKL [3], 0.02 nM; in [5] it was 0.16 nM; in assay [10] it was 0.29 nM. For the same molecule, the “IC50, hRANKL-inducible luciferase activity in HK293/RANK/NFκB-luc-eGFP cells” value (shortened to “IC50 … in HK293/RANK/NFκB-luc-eGFP cells”) in [2] turned out to be 0.02 nM; in assay [8], 0.0108 nM. For the same molecule, the equilibrium dissociation constant (Kd) is 0.0119 nM in assay [4]; 0.0395 nM with human trRANKL-his (R&D) [6]; 0.163 nM in assay [7]; 0.007 nM in assay [9]; 0.0119 nM in the assay with human trRANKL-his (R&D) [11]; 0.0399 nM in [12]. The T1/2 in assay [4] turned out to be 6 h; with human trRANKL-his (R&D) [6], 1 h; in the assay with human trRANKL-his (R&D) [11] it was 6 h; in assay [12], 1 h.

B2: H4H009P (antibody, V domains shown)
VH: QVQLVESGGGVVQPGRSLRLSCAASGFTFSGYGIHWVRQAPDKGLEWVAVISYDGTNKYYGDSVKGRFTISRDNTKNTLYLQMNSLRTEDTAVYYCAKSLSGTYWGYGMDVWGQGTTVTVS
VL: DIQMTQSPSTLSASVGDRVTITCRASQNIGNWLAWYQQKPGKAPKLLIYKASSLQNGVPSRFSGSGSGTEFTLTISSLQPDDFATYYCQRYNSYSWTFGQGTKVEIK
notes: Purified antibody from clone 2H10
Regarding B2, the “IC50 … in HK293/RANK/NFκB-luc-eGFP cells” value in assay [2] is 0.045 nM and 0.084 nM. The IC50 with penta-his-tagged hRANKL [3] was found to be 0.06 nM; in assay [5] it was 0.345 nM. The Kd turned out to be 0.376 nM in [4], 0.0248 nM in assay [7], 0.173 nM in assay [9] and 0.881 nM in assay [12]. Moreover, the results for the T1/2 in [4] and in assay [12] were 1 h and 0.13 h, respectively.

B3: H4H010P2 (antibody, V domains shown)
VH: QVQLVQSGGGVVQPGRSLRLSCAASGFTFSGYGMHWVRQAPGKGLDWVTVISYDGSNKHYADSVKGRFTISRDNSKNTLYLQMSSLGPEDTAVYYCAKSLSGTYWGYGMDVWGQGTTVTVSS
VL: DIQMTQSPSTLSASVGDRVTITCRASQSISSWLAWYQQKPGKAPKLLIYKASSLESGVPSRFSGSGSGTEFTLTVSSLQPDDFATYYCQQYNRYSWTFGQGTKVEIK
As to B3, the IC50 amounted to 0.0519 nM with penta-his-tagged hRANKL [1] and 0.353 nM in [10]. Also, the equilibrium dissociation constant (Kd) with human trRANKL-his (R&D) [6] was determined as 0.848 nM; in the assay with human trRANKL-his (R&D) [11], 0.134 nM. Also, the results for the T1/2 in the assay with human trRANKL-his (R&D) [6] and with human trRANKL-his (R&D) [11] were 0.15 h and 1 h, respectively. The “IC50 … in HK293/RANK/NFκB-luc-eGFP cells” value in [8] stood at 0.0187 nM.

B4: H4H008P2 (antibody, V domains shown)
VH: EVQLLESGGGLLQPGGSLRLSCAASGFTFSGFGMSWVRQAPGRGLEWVSVISYDGRNKYYADSVKGRFTSSRDNSKNTLYLQMNSLRAEDTAVYYCAKSLSGTYWGYGMDVWGRGTLVTVSS
VL: EIVLTQSPATLSLSPGERATLSCRASQSIRSWLAWYQQKPGQAPRLLIYKASNRATGIPARFSGSGSGTDFTLTISSLEPEDFGVYYCQQYNSYLWTFGGGTKVEIKR
As to B4, the IC50 came out at 0.0569 nM with penta-his-tagged hRANKL [1] and 1.8 nM in assay [10]. Also, the Kd in the assay with human trRANKL-his (R&D) [6] was 0.245 nM; with human trRANKL-his (R&D) [11] it was 0.0254 nM. Moreover, the figures for the T1/2 with human trRANKL-his (R&D) [6] and with human trRANKL-his (R&D) [11] were 0.2 h and 2 h, respectively. For the same molecule, in [8], the “IC50 … in HK293/RANK/NFκB-luc-eGFP cells” value stood at 0.015 nM.
